In EP2243792A1 (Spiber Technologies AB, dated 2010):

What was measured:
[1] = biological target: the molecule itself; experiment: self-association; polymerisation at pH 6, macroscopic formations and SEM
[2] = biological target: the molecule itself; experiment: self-association; turbidimetry at different pH values
[3] = biological target: NT, N-terminal domain of major ampullate spidroin (MaSp) 1 from Euprosthenops australis (Euprosthenops australis); experiment: self-association; DLS, 10 mM phosphate buffer, pH 6.0
[4] = biological target: NT, N-terminal domain of major ampullate spidroin (MaSp) 1 from Euprosthenops australis (Euprosthenops australis); experiment: self-association; DLS, 10 mM phosphate buffer, pH 7.2
[5] = biological target: NT, N-terminal domain of major ampullate spidroin (MaSp) 1 from Euprosthenops australis (Euprosthenops australis); experiment: self-association; DLS, 100 mM phosphate buffer, pH 6.2
[6] = biological target: NT, N-terminal domain of major ampullate spidroin (MaSp) 1 from Euprosthenops australis (Euprosthenops australis); experiment: self-association; DLS, 100 mM phosphate buffer, pH 7.2
[7] = biological target: NT, N-terminal domain of major ampullate spidroin (MaSp) 1 from Euprosthenops australis (Euprosthenops australis); experiment: self-association; DLS, 10 mM phosphate buffer + 150 mM NaCl, pH 6.1
[8] = biological target: NT, N-terminal domain of major ampullate spidroin (MaSp) 1 from Euprosthenops australis (Euprosthenops australis); experiment: self-association; DLS, 10 mM phosphate buffer + 150 mM NaCl, pH 7.2
[9] = biological target: NT, N-terminal domain of major ampullate spidroin (MaSp) 1 from Euprosthenops australis (Euprosthenops australis); experiment: self-association; DLS, 10 mM phosphate buffer + 300 mM NaCl, pH 6.2
[10] = biological target: NT, N-terminal domain of major ampullate spidroin (MaSp) 1 from Euprosthenops australis (Euprosthenops australis); experiment: self-association; DLS, 10 mM phosphate buffer + 300 mM NaCl, pH 7.2

B1: NT4Rep (other)
chain: GSGNSHTTPWTNPGLAENFMNSFMQGLSSMPGFTASQLDDMSTIAQSMVQSIQSLAAQGRTSPNKLQALNMAFASSMAEIAASEEGGGSLSTKTSSIASAMSNAFLQTTGVVNQPFINEITQLVSMFAQAGMNDVSASASAGASAAASAGAASGQGGYGGLGQGGYGQGAGSSAAAAAAAAAAAAGGQGGQGQGGYGQGSGGSAAAAAAAAAAAAAAAGRGQGGYGQGSGGNAAAAAAAAAAAAAAAGQGGQGGYGRQSQGAGSAAAAAAAAAAAAAAGSGQGGYGGQGQGGYGQS
notes: Non-natural minispidroin: NT domain plus a repetitive fragment derived from E. australis MaSp1; Made as a C-terminal fusion to His6TrxHis6, tag removed; also called minispidroin NT4Rep
binding result [1]: binds

B2: NT5Rep (other)
chain: GSGNSHTTPWTNPGLAENFMNSFMQGLSSMPGFTASQLDDMSTIAQSMVQSIQSLAAQGRTSPNKLQALNMAFASSMAEIAASEEGGGSLSTKTSSIASAMSNAFLQTTGVVNQPFINEITQLVSMFAQAGMNDVSASASAGASAAASAGAPGYSPAPSYSSGGYASSAASAAAAAGQGGPGGYGPAPNQGASSAAAAAAGSGQGPSGPYGTSYQISTQYTQTTTSQGQGYGSSSAGAAAAGAAGAGQGGYGGQGQGGYGQGAGGAAAAAAAAAAAAAAAGQGGQGGGGYGQGGQGGQGGQGQGGYGQGAGSSAAAAAAAAAAAAAAGRGQGGYGPGSGG
notes: Non-natural minispidroin; Made as a C-terminal fusion to His6TrxHis6, tag removed
binding result [2]: binds

B3: NT, N-terminal domain of major ampullate spidroin (MaSp) 1 from Euprosthenops australis (protein)
chain: GSGNSHTTPWTNPGLAENFMNSFMQGLSSMPGFTASQLDDMSTIAQSMVQSIQSLAAQGRTSPNKLQALNMAFASSMAEIAASEEGGGSLSTKTSSIASAMSNAFLQTTGVVNQPFINEITQLVSMFAQAGMNDVSA
% particles [3]: 100%
Size (nm) [3]: 687 nm
% particles [4]: 99.8%
Size (nm) [4]: 4.5 nm
% particles [5]: 99.9%
Size (nm) [5]: 4.2 nm
% particles [6]: 99.9%
Size (nm) [6]: 4.2 nm
% particles [7]: 96.8%
Size (nm) [7]: 710 nm
% particles [8]: 99.9%
Size (nm) [8]: 4.1 nm
% particles [9]: 99.9%
Size (nm) [9]: 4.4 nm
% particles [10]: 99.9%
Size (nm) [10]: 4.3 nm

B4: NT4RepCT (other)
chain: MKASHTTPWTNPGLAENFMNSFMQGLSSMPGFTASQLDDMSTIAQSMVQSIQSLAAQGRTSPNKLQALNMAFASSMAEIAASEEGGGSLSTKTSSIASAMSNAFLQTTGVVNQPFINEITQLVSMFAQAGMNDVSASASAGASAAASAGAASGQGGYGGLGQGGYGQGAGSSAAAAAAAAAAAAGGQGGQGQGGYGQGSGGSAAAAAAAAAAAAAAAGRGQGGYGQGSGGNAAAAAAAAAAAAAAAGQGGQGGYGRQSQGAGSAAAAAAAAAAAAAAGSGQGGYGGQGQGGYGQSSASASAAASAASTVANSVSRLSSPSAVSRVSSAVSSLVSNGQVNMAALPNIISNISSSVSASAPGASGCEVIVQALLEVITALVQIVSSSSVGYINPSAVNQITNVVANAMAQVMGKLAAALEHHHHHH
notes: Non-natural minispidroin: NT, repetitive fragment and C-terminal domain; Made as an N-terminal fusion to His6; also called NT4RepCTHis; minispidroin NT4RepCT
binding result [1]: binds
